The values below come from paper PMC8464079.

Test in all cases: fluorescence polarization
A general note: Fluorescence polarisation rises when a labelled molecule tumbles more slowly, as on binding a larger partner.

The target in one data set is T1, MUT-4A (Caenorhabditis elegans, UniProt Q09487 172-535, N318C;H319R).
T1 sequence: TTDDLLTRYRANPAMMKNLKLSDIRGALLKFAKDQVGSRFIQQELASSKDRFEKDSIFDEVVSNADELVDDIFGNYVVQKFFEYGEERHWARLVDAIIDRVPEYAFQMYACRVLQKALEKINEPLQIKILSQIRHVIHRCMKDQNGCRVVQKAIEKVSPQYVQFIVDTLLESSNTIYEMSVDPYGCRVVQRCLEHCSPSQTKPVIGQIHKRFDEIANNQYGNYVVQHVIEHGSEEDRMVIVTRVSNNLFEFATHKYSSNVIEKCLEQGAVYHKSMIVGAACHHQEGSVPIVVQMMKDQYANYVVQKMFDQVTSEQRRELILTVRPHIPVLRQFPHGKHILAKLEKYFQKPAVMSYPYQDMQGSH

The target of a further data set is T2, MUT-4G (Caenorhabditis elegans, UniProt Q09487 172-535, N318S;H319N;Q322E).
T2 sequence: T1 sequence with C147S, R148N, Q151E

Another data set addresses T3, MUT-8G (Caenorhabditis elegans, UniProt Q09487 172-535, N472S;Y473N;Q476E).
T3 sequence: T1 sequence with C147N, R148H, N301S, Y302N, Q305E

Another data set concerns the target T4, MUT-4C (Caenorhabditis elegans, UniProt Q09487 172-535, N318C;H319Y;Q322R).
T4 sequence: T1 sequence with R148Y, Q151R

The next data set addresses T5, MUT-4N (Caenorhabditis elegans, UniProt Q09487 172-535, N318A;H319A;Q322A).
T5 sequence: T1 sequence with C147A, R148A, Q151A

The target in a further data set is T6, PUF-8 WT (FP) (Caenorhabditis elegans, UniProt Q09487 172-535).
T6 sequence: T1 sequence with C147N, R148H

Numbering of substitutions follows the chain as printed.

Regarding AUACAUGU (ssRNA) [Control RNA FAM], the binding result with MUT-4A, in the data set with MUT-4G, in the data set with MUT-8G, with MUT-4C and with MUT-4N was “no binding” each time.

In the case of UGUAUAUA (ssRNA) [PBE-5U FAM], the equilibrium dissociation constant (Kd) with MUT-4A came to 5.85 ± 1.64 nM; with MUT-4G, 775 ± 276 nM; in the data set with MUT-4C it was 3.72 ± 0.94 nM; with PUF-8 WT (FP) it was 1.27 ± 1.16 nM; in the data set with MUT-4N, 313 ± 58.2 nM. Besides, the binding result with MUT-8G is recorded as “no binding”.

Take UGUACAUA (ssRNA) [PBE-5C FAM]: the Kd with MUT-4A worked out at 0.64 ± 0.2 nM; with MUT-4G it was 1350 ± 507 nM; with MUT-4C it was 2.91 ± 0.36 nM; with PUF-8 WT (FP) it was 0.84 ± 1.08 nM; with MUT-4N, 349 ± 83.2 nM. Besides, the binding result with MUT-8G is “no binding”.

In the case of GGUACAUA (ssRNA) [PBE-1G FAM], the equilibrium dissociation constant (Kd) with MUT-4A is 159 ± 34.1 nM; in the data set with MUT-4C, 207 ± 23 nM; in the data set with PUF-8 WT (FP), 128 ± 25.1 nM. Besides, the binding result in the data set with MUT-4G, with MUT-8G and in the data set with MUT-4N was “no binding” in each case.

Regarding UGUAGAUA (ssRNA) [PBE-5G FAM], the Kd with MUT-4A was determined as 9.99 ± 3.11 nM; with MUT-4G it was 29.8 ± 9.14 nM; in the data set with MUT-4C, 11.3 ± 3.43 nM; with PUF-8 WT (FP) it was 12.8 ± 5.63 nM; in the data set with MUT-4N, 180 ± 22.8 nM. Besides, the binding result with MUT-8G was “no binding”.

As usually defined, the Kd is the concentration at which binding is half-saturated. The low end stands for tighter binding, the high end for weaker binding.
